The target in one assay is GCaMP2-LIA. Description: crystal structure.
The target of the next assay is GCaMP5H. Description: crystal structure.

For orientation: stoichiometry N means a count of units in the complex or per binding partner. Substance GCaMP2-LIA showed a stoichiometry N with GCaMP2-LIA of 2.
On to GCaMP5H, for which the stoichiometry N with GCaMP5H was determined as 2.

These data come from publication PMC3482105.
